Source: the supplement of paper PMC7877785
± gives the uncertainty stated by the source.

Test: self-splicing fitness, log relative to wild type (ln ratio); higher = more splicing; Tetrahymena group I intron in knt gene, E. coli kanamycin selection, DiMSum; sequences stand for … in CUCUCU…GGAGGGAAAAGUUAUCAGGCAUGCACCUGGUAGCUAGUCUUUAAACCAAUAGAUUGCAUCGGUUUAAAAGGCAAGACCGUCAAAUUGCGGGAAAGGGGUCAACAGCCGUUCAGUACCAAGUCUCAGGGGAAACUUUGAGAUGGCCUUGCAAAGGGUAUGGUAAUAAGCUGACGGACAUGGUCCUAACCACGCAGCCAAGUCCUAAGUCAACAGAUCUUCUGUUGAUAUGGAUGCAGUUCACAGACUAAAUGUCGGUCGGGGAAGAUGUAUUCUUCUCAUAAGAUAUAGUCGGACCUCUCCUUAAUGGGAGCUAGCGGAUGAAGUGAUGCAACACUGGAGCCGCUGGGAACUAAUUUGUAUGCGAAAGUAUAUUGAUUAGUUUUGGAGUACUCGUGGUCG
How it was run: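 Six replicate transformations of E. coli BL21(DE3) with a pET-22b(+) library were grown overnight at 37°C or 30°C. The library randomised all eight P1ex-region intron nucleotides, the intron lying in the knt kanamycin-resistance gene, and plates were LB agar with or without 25 μg/mL kanamycin plus 100 μg/mL carbenicillin, 50 μM IPTG and 0.2% rhamnose. Pooled colonies were amplicon-sequenced on an Illumina HiSeq 2500, and fitness is the DiMSum error-weighted combination of wild-type-normalised replicate fold changes, kanamycin versus none.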

Sequence	self-splicing fitness (ln) (30 °C)	self-splicing fitness (ln) (37 °C)
UGAUAGCAAUAUUACGCCGA	-2.91 ± 0.32	-1.28 ± 0.18
UGAUAGCAAUAUUACGCGCC	-1.82 ± 0.36	0.00337 ± 0.21
UGAUAGCAAUAUUACGCGUA	-1.74 ± 0.13	-0.96 ± 0.13
UGAUAGCAAUAUUACGGAAG	-1.99 ± 0.14	-1.64 ± 0.21
UGAUAGCAAUAUUACGGGGA	-3.16 ± 0.39	-1.8 ± 0.26
UGAUAGCAAUAUUACGGGUA	-1.74 ± 0.12	-1.81 ± 0.14
UGAUAGCAAUAUUACGGUCG	-0.332 ± 0.098	-0.477 ± 0.1
UGAUAGCAAUAUUACGUAUG	-1.1 ± 0.16	-0.567 ± 0.16
UGAUAGCAAUAUUACGUUGA	-3.42 ± 0.19	-1.91 ± 0.14
UGAUAGCAAUAUUACGUUGU	-4.45 ± 0.29	-2.98 ± 0.21
UGCAAGCAAUAUUACGAAAA	-2.32 ± 0.28	-1.64 ± 0.17
UGCAAGCAAUAUUACGAAGC		-1.87 ± 0.4
UGCAAGCAAUAUUACGACUC	-2.66 ± 0.18	-1.56 ± 0.17
UGCAAGCAAUAUUACGAGAC	-4.03 ± 0.46	-2.05 ± 0.34
UGCAAGCAAUAUUACGAGCA	-2.28 ± 0.15	-1.39 ± 0.12
UGCAAGCAAUAUUACGAGGA	-3.28 ± 0.26	-0.992 ± 0.14
UGCAAGCAAUAUUACGAUCC	-1.21 ± 0.14	-0.955 ± 0.2
UGCAAGCAAUAUUACGAUCU	-0.477 ± 0.091	-0.822 ± 0.1
UGCAAGCAAUAUUACGAUGC	-3.55 ± 0.3	
UGCAAGCAAUAUUACGCAGA	-1.92 ± 0.16	-1.75 ± 0.15
UGCAAGCAAUAUUACGCCAC		-3.58 ± 0.42
UGCAAGCAAUAUUACGCCAG	-2.88 ± 0.19	-1.9 ± 0.26
UGCAAGCAAUAUUACGCCUA	0.231 ± 0.073	0.0781 ± 0.075
UGCAAGCAAUAUUACGCGAC	-3.46 ± 0.19	-2.65 ± 0.23

Sequence	self-splicing fitness (ln) (30 °C)	self-splicing fitness (ln) (37 °C)
UGCAAGCAAUAUUACGCGCG	-1.84 ± 0.13	-0.733 ± 0.17
UGCAAGCAAUAUUACGCUGC	-3.62 ± 0.29	-2.4 ± 0.3
UGCAAGCAAUAUUACGCUUU	-3.45 ± 0.21	-1.85 ± 0.2
UGCAAGCAAUAUUACGGCAA	0.111 ± 0.12	-0.447 ± 0.12
UGCAAGCAAUAUUACGGCAC	-3.59 ± 0.4	-3.28 ± 0.33
UGCAAGCAAUAUUACGGUCU	-0.647 ± 0.07	0.283 ± 0.082
UGCAAGCAAUAUUACGUAGU	-3.83 ± 0.18	-2.42 ± 0.17
UGCAAGCAAUAUUACGUAUC	-3.22 ± 0.2	-1.14 ± 0.15
UGCAAGCAAUAUUACGUCGU	-3.58 ± 0.22	-1.81 ± 0.17
UGCAAGCAAUAUUACGUUAA	-2.27 ± 0.13	-0.494 ± 0.1
UGCAAGCAAUAUUACGUUUA	-1.49 ± 0.076	-0.234 ± 0.072
UGCCAGCAAUAUUACGAAGC	-3.74 ± 0.22	-1.91 ± 0.18
UGCCAGCAAUAUUACGAAGU	-2.88 ± 0.22	-2.97 ± 0.23
UGCCAGCAAUAUUACGAAUU	-3.68 ± 0.26	-3.3 ± 0.24
UGCCAGCAAUAUUACGACUA	-0.442 ± 0.1	-0.0497 ± 0.1
UGCCAGCAAUAUUACGCACU	-2.03 ± 0.069	-0.315 ± 0.066
UGCCAGCAAUAUUACGCCCG	-0.317 ± 0.12	0.404 ± 0.14
UGCCAGCAAUAUUACGCCUA	-0.546 ± 0.074	0.0605 ± 0.087
UGCCAGCAAUAUUACGCGAC	-2.62 ± 0.3	-0.608 ± 0.23
UGCCAGCAAUAUUACGCGAU	-2.42 ± 0.17	-1.88 ± 0.23
UGCCAGCAAUAUUACGCGUU	-1.67 ± 0.069	-0.989 ± 0.082
UGCCAGCAAUAUUACGGAAG	-2.55 ± 0.073	-1.42 ± 0.071
UGCCAGCAAUAUUACGGAGU	-4.74 ± 0.27	-1.34 ± 0.13
UGCCAGCAAUAUUACGGAUC	-3.04 ± 0.22	-1.13 ± 0.17
